From the Immune Epitope Database (IEDB)

How the values were obtained:
HLA-A*24:02 = test: IEDB peptide-MHC binding, purified MHC/competitive/radioactivity; filed as Kd, often an IC50 or EC50 that approximates it; ≥ and ≤ were set here for values at or beyond the usual limits of such assays
HLA-A*26:01 = test: as above
HLA-A*01:01 = test: as above
HLA-A*03:01 = test: IEDB peptide-MHC binding, purified MHC/direct/fluorescence; filed as Kd, often an IC50 or EC50 that approximates it; ≥ and ≤ were set here for values at or beyond the usual limits of such assays
HLA-A*02:02 = test: IEDB peptide-MHC binding, purified MHC/competitive/radioactivity; filed as Kd, often an IC50 or EC50 that approximates it; ≥ and ≤ were set here for values at or beyond the usual limits of such assays
HLA-A*02:03 = test: as above
HLA-A*02:06 = test: as above
HLA-A*23:01 = test: as above
[1] = source organism: Dengue virus 1 Brazil/97-11/1997
[2] = source organism: Dengue virus 2 Jamaica/1409/1983
[3] = source organism: Dengue virus 4 Philippines/H241/1956
[4] = source organism: Dengue virus 4 Dominica/814669/1981
[5] = source organism: Dengue virus 3 Martinique/1243/1999
[6] = source organism: Vaccinia virus WR
[7] = source organism: Mammarenavirus brazilense
[8] = source organism: Mammarenavirus whitewaterense
[9] = source organism: SARS coronavirus Tor2
[10] = source organism: Lassa virus Josiah
[11] = source organism: Variola major virus
[12] = source organism: Mammarenavirus guanaritoense

Sequence | Kd (HLA-A*02:02; [6]) | Kd (HLA-A*02:03; [6]) | Kd (HLA-A*02:06; [6]) | also measured
AYSLTLQGL |  |  |  | Kd (HLA-A*24:02; source organism: Homo sapiens): 0.045 µM
DTIETLMLL |  |  |  | Kd (HLA-A*26:01; [1]): 0.141 µM
DTITYKCPL |  |  |  | Kd (HLA-A*26:01; [2]): 3.38 µM
DTVTYECPL |  |  |  | Kd (HLA-A*26:01; [3]): 6.13 µM
EFFLIVLLI |  |  |  | Kd (HLA-A*24:02; [2]): 3.05 µM
ELIDGISLGL |  |  |  | Kd (HLA-A*26:01; [4]): 0.5 µM
ETEPPFGESY |  |  |  | Kd (HLA-A*01:01; [1]): 0.00528 µM; Kd (HLA-A*26:01; [1]): 0.134 µM
FMWAHPGKK |  |  |  | Kd (HLA-A*03:01; source organism: Corynebacterium jeikeium): 0.039 µM
HTLIMIGSNA |  |  |  | Kd (HLA-A*26:01; [5]): ≥ 22.7 µM
ISYKDREWCF |  |  |  | Kd (HLA-A*24:02; [3]): 1.02 µM
ITVDDDGTM |  |  |  | Kd (HLA-A*26:01; [5]): 13.9 µM
KLPTLFGRGV | 0.19 µM | 0.0326 µM | 0.0526 µM | 
KNATWCLEV |  |  |  | Kd (HLA-A*02:02; [7]): 1.61 µM; Kd (HLA-A*02:03; [7]): 7.01 µM; Kd (HLA-A*02:06; [7]): 2.31 µM
KTEHCDDFMT | 7.82 µM | ≥ 37.7 µM | 11.6 µM | 
KYTDRKWCF |  |  |  | Kd (HLA-A*23:01; [5]): 0.18 µM; Kd (HLA-A*24:02; [5]): 0.138 µM
LAYVVIGLLF |  |  |  | Kd (HLA-A*23:01; [1]): 0.0364 µM
LDFAKVASV |  |  |  | Kd (HLA-A*02:02; [8]): 0.0612 µM; Kd (HLA-A*02:03; [8]): 0.452 µM; Kd (HLA-A*02:06; [8]): 10.6 µM
LIGNENYLDY |  |  |  | Kd (HLA-A*01:01; [1]): 6.08 µM
LINLVQYRI | 0.311 µM | 0.583 µM | 5.34 µM | 
LLGLILFVL | 0.266 µM | 1.86 µM | 8.14 µM | 
LMANLAPHLL |  |  |  | Kd (HLA-A*02:02; [9]): 0.000228 µM; Kd (HLA-A*02:03; [9]): 0.00146 µM; Kd (HLA-A*02:06; [9]): 0.115 µM

Sequence | Kd (HLA-A*02:02; [6]) | Kd (HLA-A*02:03; [6]) | Kd (HLA-A*02:06; [6]) | also measured
LMSFTILCLV |  |  |  | Kd (HLA-A*02:02; [9]): 0.000338 µM; Kd (HLA-A*02:03; [9]): 0.0906 µM; Kd (HLA-A*02:06; [9]): 0.0396 µM
LNISGYNFSL |  |  |  | Kd (HLA-A*02:02; [10]): 0.0155 µM; Kd (HLA-A*02:03; [10]): 4.55 µM; Kd (HLA-A*02:06; [10]): 0.42 µM
LTFIKTTLSL |  |  |  | Kd (HLA-A*26:01; [1]): 11.4 µM
LVIGFLFLA |  |  |  | Kd (HLA-A*02:02; [9]): 0.00738 µM; Kd (HLA-A*02:03; [9]): 0.0196 µM; Kd (HLA-A*02:06; [9]): ≤ 0.0001 µM
LWMASVEPHW |  |  |  | Kd (HLA-A*23:01; [1]): 0.13 µM; Kd (HLA-A*24:02; [1]): 0.231 µM
LYAVATTFVT |  |  |  | Kd (HLA-A*24:02; [2]): 0.55 µM
NLDDVYSYI |  |  |  | Kd (HLA-A*02:02; [11]): 0.000722 µM; Kd (HLA-A*02:03; [11]): 0.096 µM; Kd (HLA-A*02:06; [11]): 0.0918 µM
NLYISDYKML | 1.25 µM | 1.83 µM | ≥ 36 µM | 
NSEQGGRAY |  |  |  | Kd (HLA-A*01:01; source organism: Dengue virus 1 Singapore/S275/1990): 0.316 µM
NTNQGNILM | 1.7 µM | 1.15 µM | 5.94 µM | 
NTYKRSGIM |  |  |  | Kd (HLA-A*26:01; [1]): 6.55 µM
PIPYSRVNHA | 11.7 µM | 15.3 µM | 1.45 µM | 
PTRTWKVLSI | ≥ 41.9 µM | 15.1 µM | ≥ 69.8 µM | 
PTSETMYLTM | 0.862 µM | 0.191 µM | 0.915 µM | 
PYLGKREDQW |  |  |  | Kd (HLA-A*23:01; [2]): 1.39 µM; Kd (HLA-A*24:02; [2]): 2.98 µM
QILDNAAKYV | 3.93 µM | 3.87 µM | 11.4 µM | 
QLYTISSESL | 0.0717 µM | 0.245 µM | 4.75 µM | 
QVKELGIAI | 9.05 µM | 0.882 µM | 3.71 µM | 
QYIYMGEPLE |  |  |  | Kd (HLA-A*24:02; [2]): 9.09 µM
RTRLYDYFT | 7.1 µM | 3.05 µM | ≥ 48.5 µM | 
SAEVERLMEL | 1.28 µM | 2.5 µM | 1.25 µM | 

Sequence | Kd (HLA-A*02:02; [6]) | Kd (HLA-A*02:03; [6]) | Kd (HLA-A*02:06; [6]) | also measured
SLFNRGRLK |  |  |  | Kd (HLA-A*03:01; source organism: Mammarenavirus juninense): 0.0424 µM
SLVITYCLV | 1.69 µM | 0.201 µM | 0.269 µM | 
SQMETDFLEL |  |  |  | Kd (HLA-A*02:02; [9]): 0.227 µM; Kd (HLA-A*02:03; [9]): 0.597 µM; Kd (HLA-A*02:06; [9]): 0.0206 µM
STITLLCLI |  |  |  | Kd (HLA-A*26:01; [4]): 0.867 µM
TLFIDRGSI | 2.1 µM | 0.802 µM | ≥ 77.1 µM | 
TTENAAYQVL | ≥ 29.7 µM | ≥ 70.4 µM | ≥ 69.8 µM | 
TTIGTIAGGV | 0.741 µM | 0.0426 µM | 0.0843 µM | 
TTLLNETAKV | 1.64 µM | 0.00017 µM | 1.65 µM | 
TWVTYGTCTT |  |  |  | Kd (HLA-A*24:02; source organism: Dengue virus 2 Peru/IQT2913/1996): ≥ 70.3 µM
VFHELPSLC |  |  |  | Kd (HLA-A*01:01; [12]): ≥ 78.1 µM; Kd (HLA-A*26:01; [12]): ≥ 77.9 µM
VFTTNIWLK |  |  |  | Kd (HLA-A*23:01; [2]): ≥ 30.9 µM
VIDLEPISY |  |  |  | Kd (HLA-A*01:01; [3]): 0.0517 µM
VIPDELIDV | 0.609 µM | 0.0438 µM | 0.556 µM | 
VLALYSPPL | 0.000224 µM | 0.000412 µM | 0.0326 µM | 
YAGTIKESL | 2.07 µM | 2.49 µM | 3.3 µM | 
YIFFASFYYI |  |  |  | Kd (HLA-A*02:02; [9]): 0.00046 µM; Kd (HLA-A*02:03; [9]): 0.0598 µM; Kd (HLA-A*02:06; [9]): 0.0008 µM
YLGPRVCWL | 0.000901 µM | 0.00336 µM | 0.0232 µM | 
YVEHDPRLV | 1.18 µM | 0.711 µM | ≥ 22.5 µM | 
YVHEGVSYEV | 0.0129 µM | 0.071 µM | 0.00908 µM | 
